Source: article PMC5548745, “Agonist-induced dimer dissociation as a macromolecular step in G protein-coupled receptor signaling” (Nature Communications, 2017)
Numbering of substitutions follows the chain as printed. Numbers in names are those of the source.

B1: FZD6 dimer mutant: D365A, R368A, Y369A triple mutant of FZD6 (protein)
chain: HSLFTCEPITVPRCMKMAYNMTFFPNLMGHYDQSIAAVEMEHFLPLANLECSPNIETFLCKAFVPTCIEQIHVVPPCRKLCEKVYSDCKKLIDTFGIRWPEELECDRLQYCDETVPVTFDPHTEFLGPQKKTEQVQRDIGFWCPRHLKTSGGQGYKFLGIDQCAPPCPNMYFKSDELEFAKSFIGTVSIFCLCATLFTFLTFLIDVRRFRYPERPIIYYSVCYSIVSLMYFIGFLLGDSTACNKADEKLELGDTVVLGSQNKACTVLFMLLYFFTMAGTVWWVILTITWFLAAGRKWSCEAIEQKAVWFHAVAWGTPGFLTVMLLAMNKVEGDNISGVCFVGLYDLAASAAFVLLPLCLCVFVGLSLLLAGIISLNHVRQVIQHDGRNQEKLKKFMIRIGVFSGLYLVPLVTLLGCYVYEQVNRITWEITWVSDHCRQYHIPCPYQAKAKARPELALFMIKYLMTLIVGISAVFWVGSKKTCTEWAGFFKRNRKRDPISESRRVLQESCEFFLKHNSKVKHKKKHYKPSSHKLKVISKSMGTSTGATANHGTSAVAITSHDYLGQETLTEIQTSPETSMREVKADGASTPRLREQDCGEPASPAASISRLSGEQVDGKGQAGSVSESARSEGRISPKSDITDTGLAQSNNLQVPSSSEPSSLKGSTSLLVHPVSGVRKEQGGGCHSDT
modifications: left off: GFP, C-terminal, kept
B2: FZD6-R511C: DVL-biased FZD6 nail dysplasia mutant (protein, UniProt O60353 19-706, looked up, variant R511C)
Frizzled-6: B1 chain with A347D, A350R, A351Y, R493C
modifications: GFP or mCherry tag
notes: DVL-biased FZD6 nail dysplasia mutant

Columns and labels:
[1] = tested on: SNAP-β2-adrenergic receptor; test: SNAP-β2-AR internalization by confocal microscopy; type: cell-based; settings: HEK293; isoproterenol 10 µM, 15 min
Procedure: SNAP-FZD6 and SNAP-β2-AR were imaged in living cells using a Zeiss LSM710 equipped with a 40×, 1.2 NA C-Apochromat objective. The cell-impermeable SNAP substrate SNAP-Surface 549 (New England Biolabs) was added (1:1000, 15 min), washed twice in BE buffer and imaged using the 561 nm laser line. SNAP-FZD6 and SNAP-β2-AR were stimulated with 300 ng ml^−1 WNT-5A and 10 µM isoproterenol, respectively, and fluorescence was monitored over time.

DVL2-GFP = test: dcFRAP with chemical surface crosslinking, FZD6 dimer mutant/DVL2-GFP; type: cell-based; settings: inactive state
Procedure: For dual color FRAP experiments, cells grown in four compartment 35 mm glass bottom dishes were washed three times with BE buffer[19] (150 mM NaCl, 2.5 mM KCl, 10 mM HEPES, 12 mM glucose, 0.5 mM CaCl2, and 0.5 mM MgCl2). Then, the cells were incubated at RT for 30 min with biotin-conjugated goat polyclonal anti-V5 antibody (Bethyl) diluted 1:100 in BE buffer supplemented with 2.5% bovine serum albumin. For antibody-mediated cross-linking, avidin was added and incubated for 15 min and washed two times with BE buffer before the experiments were performed. […] Fluorescence was measured pre- and post-bleach using low-intensity illumination for a total time period of 100 s. Average pixel intensity was measured using the ZEN2013 software, corrected for background fluctuations and bleaching artifacts and normalized to pre-bleached intensity. The recovered mobile fraction (F m) was calculated as follows: F m = (I P–I 0)/(I I–I 0), where I I is the initial intensity measured prior to bleaching, I 0 is the immediate fluorescence intensity post-bleaching and I P is intensity value post-bleaching. The mobile fraction was defined by the average of the fluorescence recovery assessed between time 85–101 s (including pre-bleach measurements). […]

[2] = tested on: ERK1/2 phosphorylation in HEK293 cells; test: P-ERK1/2 immunoblot, HEK293 cells expressing SNAP-FZD6 constructs; type: cell-based
Procedure: Fig. 6 Relationship between FZD6 dimerization and phosphorylation of ERK1/2. a Mouse lung epithelial (MLE-12) cells were stimulated with WNT-5A (300 ng ml^−1) for 0, 2.5, 5, 10, 20 min. Cell lysates were analyzed for P-ERK1/2 and β-actin by immunoblotting. Additional information in Supplementary Fig. 6. b Bar graph summarizes three independent experiments. Densitometry data were normalized to the unstimulated control. […] Additional information in Supplementary Fig. 6. SNAP-FZD6 wt- and SNAP-FZD6 dimer mutant-induced ERK1/2 phosphorylation in the absence e and presence f of the porcupine inhibitor C59 (5 µM, overnight) were probed by immunoblotting for the SNAP-tag, P-ERK1/2, total ERK1/2 and β-actin. g The bar graph summarizes densitometry data of P-ERK1/2 normalized to total ERK1/2 from 6 different experiments. P = 0.0005; F (2, 15) = 13.08. ***P < 0.001. Empty vector transfection was used as mock. h Increasing amounts of plasmid of either SNAP-FZD6 wt or SNAP-FZD6 dimer mutant in the presence of C59 show a dose-dependent increase in P-ERK1/2 only with the dimer mutant. Data from three independent experiments for the dimer mutant were fit to a linear least-squares model (slope = 0.40 ± 0.10; R ^2 = 0.5943) and this line is shown superimposed. […] This dissociation-dependent activation can be evoked by agonist (WNT^high) or mutation of the dimer interface (symbolized by red stars). WNT^low conditions can be achieved in the presence of C59, which reduces FZD6 wt signaling
MLE-12 or HEK293 cells (ATCC) were plated in a 24- or 48-well plate at a density of 100,000 or 50,000 cells/well, respectively. After 24 h, cells were transfected using Lipofectamine 2000 according to the manufacturer’s instructions. Cells were stimulated (24 h post-transfection) with 300 ng ml^−1 recombinant carrier-free WNT-5A (CF WNT-5A; R&D Systems). Stimulation was stopped by the addition of lysis buffer (1% NP-40, 150 mM NaCl, 50 mM Tris/HCl pH 8). Lysates were sonicated and analyzed by 7.5 or 10% Mini-PROTEAN TGX precast polyacrylamide gels (Bio-Rad) and transferred to PVDF membranes using the Trans-Blot Turbo system (Bio-Rad). After blocking with 5% milk or BSA in TBS-T, membranes were incubated with primary antibodies in blocking buffer: mouse anti-β-actin (1:30,000; Sigma #A5441), rabbit anti-FZD6 (1:1000; NovusBio #NBP1-00830), rabbit anti-Phospho-p44/42 MAPK (ERK1/2) (Thr202/Tyr204) (1:1000; Cell Signaling Technology #9101 L), rabbit anti-p44/42 MAPK (ERK1/2) (1:1000; Cell Signaling Technology #9102), rabbit anti-Phospho-C-RAF (Ser338) (1:1000; Cell Signaling Technology #56A6), rabbit anti-SNAP tag (1:1000, New England Biolabs #P9310S), and rabbit anti-HA (1:4000, abcam #ab9110) overnight at 4 °C. Proteins were detected with horseradish peroxidase-conjugated secondary antibodies (goat anti-rabbit and goat anti-mouse (Pierce)) and Clarity Western ECL Blotting Substrate (Bio-Rad). All uncropped immunoblots can be found in the Supplementary Information.

FZD6–FZD6 dimer = test: dcFRAP of V5-FZD6-mCherry/FZD6-GFP (FZD6 dimerization); type: cell-based, human; settings: HEK293; GFP-tagged mutant with wt V5-FZD6-mCherry; anti-V5/avidin crosslinking
Outline: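 Live cells co-expressing V5-FZD6-mCherry and FZD6-GFP, surface V5 tag crosslinked with biotin-anti-V5 plus avidin in BE buffer at RT. Membrane areas photobleached, recovery imaged (488/561 nm) over 100 s; mobile fraction from background/bleach-corrected, pre-bleach-normalized intensity at 85-101 s. Cells with <40% crosslink-induced mobility reduction excluded.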

[3] = tested on: subcellular localization in HEK293 cells; test: co-localization of FZD6-R511C with FZD6 constructs; type: cell-based, human; settings: FZD6-R511C with FZD6-mCherry, or FZD6 dimer mutant with FZD6-R511C
Gαi1-GFP = settings: cited from earlier work

Row | Molecule | internalization of SNAP-β2-adrenergic receptor [1] | assembly with DVL (DVL2-GFP) | P-ERK1/2 induction in presence of C59 ([2]; HEK293, C59 5 µM overnight) | slope of P-ERK1/2 vs plasmid amount ([2]; HEK293, C59, linear least-squares, R^2 = 0.5943, three independent experiments) | effect of overexpression on basal P-ERK1/2 without C59 ([2]; serum-starved HEK293, no C59) | dimerization by CL-induced decrease of mobile fraction (FZD6–FZD6 dimer) | subcellular localization on co-expression [3] | assembly with Gαi1/Gαq proteins (Gαi1-GFP)
1 | CC(C)NCC(O)c1ccc(O)c(O)c1 (stereo not drawn) [isoproterenol] | appearance of numerous endosome-like structures after 15 min |  |  |  |  |  |  | 
2 | B1 |  | retained the ability to interact with the scaffold protein DVL | maintained its ability to induce ERK1/2 phosphorylation | 0.40 ± 0.10 | increased basal P-ERK1/2 | did not result in a decrease of the mobile fraction of FZD6-GFP | maintained cell surface localization | 
3 | B2 |  |  |  |  |  |  | predominant intracellular localization of both constructs | does not assemble with Gαi1/Gαq proteins
